Source: publication PMC2802489

How the values were obtained:
Assay in all cases: purified protein
CC(C)C=O = settings: 0.25 mM NADH, 50 mM MOPS pH 7.0, 37 °C, 100 nM enzyme
CC=O = settings: 0.25 mM NADH, 50 mM MOPS pH 7.0, 37 °C, 100 nM enzyme
purified protein [1] = substrate: CC=O; assay type: biochemical, Escherichia coli; settings: 0.25 mM NADPH, 50 mM MOPS pH 7.0, 37 °C, 100 nM enzyme
purified protein [2] = substrate: CC(C)C=O; assay type: biochemical, Escherichia coli; settings: 0.25 mM NADPH, 50 mM MOPS pH 7.0, 37 °C, 100 nM enzyme
purified protein [3] = substrate: CC=O; assay type: biochemical, Saccharomyces cerevisiae; settings: 0.25 mM NADH, 50 mM MOPS pH 7.0, 37 °C, 100 nM enzyme

Molecule “AdhA (Lactococcus lactis subsp. lactis Il1403)” has a Km (CC(C)C=O) of 9100 ± 2900 µM, a kcat (CC(C)C=O) of 6.6 ± 0.2 s⁻¹ and a kcat/Km (CC(C)C=O) of 800 M⁻¹ s⁻¹. For the same molecule, the Km (CC=O) was 500 ± 200 µM, the kcat (CC=O) was 10 ± 0.3 s⁻¹ and the kcat/Km (CC=O) was 20900 M⁻¹ s⁻¹.

B1: YqhD (Escherichia coli K-12) (protein)
chain: NNFNLHTPTRILFGKGAIAGLREQIPHDARVLITYGGGSVKKTGVLDQVLDALKGMDVLEFGGIEPNPAYETLMNAVKLVREQKVTFLLAVGGGSVLDGTKFIAAAANYPENIDPWHILQTGGKEIKSAIPMGCVLTLPATGSESNAGAVISRKTTGDKQAFHSAHVQPVFAVLDPVYTYTLPPRQVANGVVDAFVHTVEQYVTKPVDAKIQDRFAEGILLTLIEDGPKALKEPENYDVRANVMWAATQALNGLIGAGVPQDWATHMLGHELTAMHGLDHAQTLAIVLPALWNEKRDTKRAKLLQYAERVWNITEGSDDERIDAAIAATRNFFEQLGVPTHLSDYGLDGSSIPALLKKLEEHGMTQLGENHDITLDVSRRIYEAAR
B1 was tested, and the Km (purified protein [1]) was 27600 ± 12400 µM, the kcat (purified protein [1]) was 1.1 ± 0.1 s⁻¹ and the kcat/Km (purified protein [1]) was 50 M⁻¹ s⁻¹. It also gave a Km (purified protein [2]) of 1800 ± 1300 µM and a kcat (purified protein [2]) of 1 ± 0.1 s⁻¹.

B2: Adh2 (Saccharomyces cerevisiae S288C) (protein)
chain: SIPETQKAIIFYESNGKLEHKDIPVPKPKPNELLINVKYSGVCHTDLHAWHGDWPLPTKLPLVGGHEGAGVVVGMGENVKGWKIGDYAGIKWLNGSCMACEYCELGNESNCPHADLSGYTHDGSFQEYATADAVQAAHIPQGTDLAEVAPILCAGITVYKALKSANLRAGHWAAISGAAGGLGSLAVQYAKAMGYRVLGIDGGPGKEELFTSLGGEVFIDFTKEKDIVSAVVKATNGGAHGIINVSVSEAAIEASTRYCRANGTVVLVGLPAGAKCSSDVFNHVVKSISIVGSYVGNRADTREALDFFARGLVKSPIKVVGLSSLPEIYEKMEKGQIAGRYVVDTSK
With B2 the Km (purified protein [3]) was 140 ± 20 µM, the kcat (purified protein [3]) was 6.6 ± 0.5 s⁻¹ and the kcat/Km (purified protein [3]) was 46900 M⁻¹ s⁻¹.
